Laboratory results from patent publication US20090136523A1 (published 2009).

Experiments:
[1] = target: T1, Purified recombinant human CD26 (rhDipeptidyl peptidase IV), R&D Systems CAT# 1180-SE (human, UniProt P27487 29-766); test: SPR (Biacore), IgG1 over CD26
T1 construct: also called hu-CD26; soluble human CD26
Procedure: Fabs produced in E. coli as described below were diluted in PBS in a concentration of ˜0.5 μM for the assay. A typical recording included a 3 minute period of injection of the Fab followed by a period of 15 minutes of dissociation, and analysis was performed based on the raw data of the binding curves accordingly.
Analyses thereof were performed using Biacore® as described in Example 1, excepting the binding partners were the rhuMAbs noted above.

[2] = target: peptide 121 (human); test: peptide microarray
[3] = target: peptide 125 (human); test: peptide microarray
[4] = target: peptide 16 (human); test: peptide microarray
[5] = target: peptide 13 (human); test: peptide microarray
[6] = target: peptide 69 (human); test: peptide microarray

T1 sequence (P27487 29-766 limits assumed): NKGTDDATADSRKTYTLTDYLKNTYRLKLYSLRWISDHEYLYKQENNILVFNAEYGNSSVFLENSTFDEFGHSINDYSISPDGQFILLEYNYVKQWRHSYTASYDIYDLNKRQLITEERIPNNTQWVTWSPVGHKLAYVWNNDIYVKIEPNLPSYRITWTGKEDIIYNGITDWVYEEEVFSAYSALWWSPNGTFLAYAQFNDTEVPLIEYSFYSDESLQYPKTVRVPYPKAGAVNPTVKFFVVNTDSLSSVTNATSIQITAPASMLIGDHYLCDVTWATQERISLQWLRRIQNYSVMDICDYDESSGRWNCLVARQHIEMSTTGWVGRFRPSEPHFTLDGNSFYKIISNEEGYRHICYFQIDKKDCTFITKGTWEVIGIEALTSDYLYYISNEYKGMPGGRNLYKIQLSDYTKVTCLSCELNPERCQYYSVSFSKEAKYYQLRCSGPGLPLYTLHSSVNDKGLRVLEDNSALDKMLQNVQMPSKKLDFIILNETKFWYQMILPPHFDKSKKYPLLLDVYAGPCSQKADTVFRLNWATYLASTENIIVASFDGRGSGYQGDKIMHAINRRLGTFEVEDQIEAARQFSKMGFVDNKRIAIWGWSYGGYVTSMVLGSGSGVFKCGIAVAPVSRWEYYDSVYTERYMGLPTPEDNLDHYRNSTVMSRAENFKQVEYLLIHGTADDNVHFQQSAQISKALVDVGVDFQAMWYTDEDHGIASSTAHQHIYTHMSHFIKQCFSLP

B1: rhuMAb 411 (antibody, human IgG1, kappa, V domains shown)
VH: EVQLVESGAGVKQPGGTLRLTCTASGFSLTTYGVHWVRQAPGKGLEWVGVIWGDGRTDYDAAFMSRVTISKDTSKSTVYLQMNSLRAEDTAVYYCMRNRHDWFDYWGQGTTVTVSS
VL: DILLTQSPSSLSATPGERATITCRASQGIRNNLNWYQQKPGQAPRLLIYYSSNLQSGVPSRFSGSGSGTDFTLTISRLQPEDVAAYYCQQSIKLPFTFGSGTKVEIKR
notes: also called X411
koff [1]: 0.000108 s⁻¹ | kon [1]: 485000 M⁻¹ s⁻¹ | Mean Signal Value [2]: 2.08 | Mean Signal Value [3]: 1.8 | Mean Signal Value [4]: 1.92 | Mean Signal Value [5]: 1.94 | Mean Signal Value [6]: 2.45
